Measurements as given in patent US9994628B2, “Peptides and combination of peptides for use in immunotherapy against various tumors” (IMMATICS BIOTECHNOLOGIES GMBH, priority 2015, dated 2018).

Target: HLA-A*02:01 (Homo sapiens, UniProt P04439, D140Y/D185E/D98H/E176V/E277Q/G131W/G231S/I119V/I121R/I166T/I218V/L300P/L318F/N151K/N90K/P208A/P217A/Q86G/Q94H/R138H/R169H/T345S)
Assay: MHC binding assay: UV-ligand exchange and β2m ELISA (peptide exchange yield, Table 7)
Details: binding of HLA-class I restricted peptides to HLA-A*02:01, UV-ligand exchange
Excerpt: Candidate peptides for T cell based therapies according to the present invention were further tested for their MHC binding capacity (affinity). The individual peptide-MHC complexes were produced by UV-ligand exchange, where a UV-sensitive peptide is cleaved upon UV-irradiation, and exchanged with the peptide of interest as analyzed. Only peptide candidates that can effectively bind and stabilize the peptide-receptive MHC molecules prevent dissociation of the MHC complexes. To determine the yield of the exchange reaction, an ELISA was performed based on the detection of the light chain (β2 m) of stabilized MHC complexes. The assay was performed as generally described in Rodenko et al. (Rodenko et al., 2006).
96 well MAXISorp plates (NUNC) were coated over night with 2 ug/ml streptavidin in PBS at room temperature, washed 4× and blocked for 1 h at 37° C. in 2% BSA containing blocking buffer. Refolded HLA-A*02:01/MLA-001 monomers served as standards, covering the range of 15-500 ng/ml. Peptide-MHC monomers of the UV-exchange reaction were diluted 100 fold in blocking buffer. Samples were incubated for 1 h at 37° C., washed four times, incubated with 2 ug/ml HRP conjugated anti-β2 m for 1 h at 37° C., washed again and detected with TMB solution that is stopped with […]. Absorption was measured at 450 nm. Candidate peptides that show a high exchange yield (preferably higher than 50%, most preferred higher than 75%) are generally preferred for a generation and production of antibodies or fragments thereof, and/or T cell receptors or fragments thereof, as they show sufficient avidity to the MHC molecules and prevent dissociation of the MHC complexes.

| Substance | Peptide exchange (MHC class I binding score, peptide exchange yield) |
| --- | --- |
| 74 (GLAFLPASV; listed as Homo sapiens) [compound 74] | ++ (≥20% = ++) |
| 75 (ALLDGALQL; listed as Homo sapiens) [compound 75] | +++ (≥50% = +++) |
| 76 (FTAEFLEKV; listed as Homo sapiens) [compound 76] | +++ (≥50% = +++) |
| 77 (ALYGNVQQV; listed as Homo sapiens) [compound 77] | +++ (≥50% = +++) |
| 80 (VLTGQVHEL; listed as Homo sapiens) [compound 80] | +++ (≥50% = +++) |
| 81 (ILAEEPIYI; listed as Homo sapiens) [compound 81] | ++ (≥20% = ++) |
| 82 (ILAEEPIYIRV; listed as Homo sapiens) [compound 82] | +++ (≥50% = +++) |
| 83 (GLLENSPHL; listed as Homo sapiens) [compound 83] | ++ (≥20% = ++) |
| 84 (FLLEREQLL; listed as Homo sapiens) [compound 84] | ++++ (≥75% = ++++) |
| 85 (KLLDKPEQFL; listed as Homo sapiens) [compound 85] | ++ (≥20% = ++) |
| 88 (LLLPLELSLA; listed as Homo sapiens) [compound 88] | +++ (≥50% = +++) |
| 91 (LLPSIFLMV; listed as Homo sapiens) [compound 91] | ++ (≥20% = ++) |
| 92 (RLFEEVLGV; listed as Homo sapiens) [compound 92] | ++++ (≥75% = ++++) |
| 97 (KLFEKSTGL; listed as Homo sapiens) [compound 97] | +++ (≥50% = +++) |
| 98 (FVQEKIPEL; listed as Homo sapiens) [compound 98] | +++ (≥50% = +++) |
| 100 (ALQSFEFRV; listed as Homo sapiens) [compound 100] | +++ (≥50% = +++) |
| 102 (GLYPVTLVGV; listed as Homo sapiens) [compound 102] | +++ (≥50% = +++) |
| 103 (YLADTVQKL; listed as Homo sapiens) [compound 103] | ++ (≥20% = ++) |

| Substance | Peptide exchange (MHC class I binding score, peptide exchange yield) |
| --- | --- |
| 105 (AMLASQTEA; listed as Homo sapiens) [compound 105] | ++ (≥20% = ++) |
| 106 (VLLGSVVIFA; listed as Homo sapiens) [compound 106] | ++ (≥20% = ++) |
| 107 (RVLPGQAVTGV; listed as Homo sapiens) [compound 107] | ++ (≥20% = ++) |
| 108 (FIANLPPELKA; listed as Homo sapiens) [compound 108] | +++ (≥50% = +++) |
| 109 (ILGSFELQL; listed as Homo sapiens) [compound 109] | +++ (≥50% = +++) |
| 111 (AQLEGKLVSI; listed as Homo sapiens) [compound 111] | +++ (≥50% = +++) |
| 112 (ILAQDVAQL; listed as Homo sapiens) [compound 112] | +++ (≥50% = +++) |
| 114 (LLFPSDVQTL; listed as Homo sapiens) [compound 114] | ++ (≥20% = ++) |
| 115 (ILHGEVNKV; listed as Homo sapiens) [compound 115] | ++ (≥20% = ++) |
| 116 (ALLSSVAEA; listed as Homo sapiens) [compound 116] | ++ (≥20% = ++) |
| 117 (TLLEGISRA; listed as Homo sapiens) [compound 117] | ++ (≥20% = ++) |
| 122 (SIIDTELKV; listed as Homo sapiens) [compound 122] | +++ (≥50% = +++) |
| 128 (SILTNISEV; listed as Homo sapiens) [compound 128] | ++ (≥20% = ++) |
| 129 (KMASKVTQV; listed as Homo sapiens) [compound 129] | ++ (≥20% = ++) |
| 132 (ALLNNVIEV; listed as Homo sapiens) [compound 132] | +++ (≥50% = +++) |
| 134 (SLYKSFLQL; listed as Homo sapiens) [compound 134] | ++ (≥20% = ++) |
| 137 (KLIYKDLVSV; listed as Homo sapiens) [compound 137] | ++ (≥20% = ++) |
| 138 (GIINKLVTV; listed as Homo sapiens) [compound 138] | ++ (≥20% = ++) |

The next lines start with the values.

| Peptide exchange (MHC class I binding score, peptide exchange yield) | Substance |
| --- | --- |
| ++ (≥20% = ++) | 79 (TVLEEIGNRV; listed as Homo sapiens) [compound 79] |
| +++ (≥50% = +++) | 86 (SLFSNIESV; listed as Homo sapiens) [compound 86] |
| +++ (≥50% = +++) | 87 (KLLSLLEEA; listed as Homo sapiens) [compound 87] |
| +++ (≥50% = +++) | 89 (SLAETIFIV; listed as Homo sapiens) [compound 89] |
| ++ (≥20% = ++) | 90 (AILNVDEKNQV; listed as Homo sapiens) [compound 90] |
| ++ (≥20% = ++) | 93 (RLYGYFHDA; listed as Homo sapiens) [compound 93] |
| +++ (≥50% = +++) | 94 (YLDEVAFML; listed as Homo sapiens) [compound 94] |
| +++ (≥50% = +++) | 95 (KLIDEDEPLFL; listed as Homo sapiens) [compound 95] |
| ++ (≥20% = ++) | 96 (ALDTTRHEL; listed as Homo sapiens) [compound 96] |
| +++ (≥50% = +++) | 99 (TLFGIQLTEA; listed as Homo sapiens) [compound 99] |
| +++ (≥50% = +++) | 101 (SLLEVNEASSV; listed as Homo sapiens) [compound 101] |
| ++ (≥20% = ++) | 110 (QIQGQVSEV; listed as Homo sapiens) [compound 110] |
| ++ (≥20% = ++) | 113 (FLFLKEVKV; listed as Homo sapiens) [compound 113] |
| ++ (≥20% = ++) | 119 (SLIEESEEL; listed as Homo sapiens) [compound 119] |
| ++ (≥20% = ++) | 121 (ALYVQAPTV; listed as Homo sapiens) [compound 121] |
| + (≥10% = +) | 123 (QTAPEEAFIKL; listed as Homo sapiens) [compound 123] |
| ++ (≥20% = ++) | 124 (ALLLRLFTI; listed as Homo sapiens) [compound 124] |
| +++ (≥50% = +++) | 125 (AALEVLAEV; listed as Homo sapiens) [compound 125] |
| +++ (≥50% = +++) | 126 (QLREAFEQL; listed as Homo sapiens) [compound 126] |
| +++ (≥50% = +++) | 130 (QLYGSAITL; listed as Homo sapiens) [compound 130] |
| +++ (≥50% = +++) | 131 (SLYPHFTLL; listed as Homo sapiens) [compound 131] |
| ++ (≥20% = ++) | 133 (FLDGRPLTL; listed as Homo sapiens) [compound 133] |
| +++ (≥50% = +++) | 136 (LLWDAPAKC; listed as Homo sapiens) [compound 136] |
| +++ (≥50% = +++) | 139 (IILENIQSL; listed as Homo sapiens) [compound 139] |
| +++ (≥50% = +++) | 140 (FLDSQITTV; listed as Homo sapiens) [compound 140] |
| ++ (≥20% = ++) | 141 (NIDINNNEL; listed as Homo sapiens) [compound 141] |
